Patent CN106008708A

Biological target: 重组HBx蛋白 (B基因型HBx, GenBank NO.AF100309.1, 大肠杆菌表达) (乙型肝炎病毒(HBV) B基因型)
Experiment: ELISA, serial dilution of purified antibody on plates coated with immunogen HBx; positive threshold 0.3

B1: HBx单克隆抗体KY01 (antibody, mouse IgG1, V domains shown)
VH: EVQLQQSGPELVRPGASVKMSCKASGYTFTSYWMHWLKQRPGQGLEWIGMIDPSNSETRLNQKFKDKATLNVDKSSNTAYMQLSSLTSEDSAVYYCAYDGAYWGQGTLVTVSE
VL: DIVLTQSPASLAVSLGQRATISCRASESVDSYGNSFIHWYQQKPGQPPKLLIYRASNLESGIPARFSGSGSRTDFTLTINPVEADDVATYFCQQSNEDPRTFGGGTKLEIKR
Q: With B1 as the binder, how does the 抗体滴度(效价) (dilution factor (1:n)) read?
A: The 抗体滴度(效价) (dilution factor (1:n)) was 2.5e+06.
